In article PMC8145141, “Characterization of a Dye-Decolorizing Peroxidase from Irpex lacteus Expressed in Escherichia coli: An Enzyme with Wide Substrate Specificity Able to Transform Lignosulfonates” (Journal of Fungi, 2021):

Columns and labels:
purified protein [1] = substrate: CCn1c(=NN=c2sc3cc(S(=O)(=O)O)ccc3n2CC)sc2cc(S(=O)(=O)O)ccc21; assay: purified protein; type: biochemical, Irpex lacteus; settings: 0.4 mM H2O2, pH 3.0, 25 °C
purified protein [2] = substrate: Nc1c(N=Nc2ccc(S(=O)(=O)CCOS(=O)(=O)O)cc2)c(S(=O)(=O)O)cc2cc(S(=O)(=O)O)c(N=Nc3ccc(S(=O)(=O)CCOS(=O)(=O)O)cc3)c(O)c12; assay: purified protein; type: biochemical, Irpex lacteus; settings: 0.4 mM H2O2, pH 3.0, 25 °C

B1: IrlacDyP (recombinant Irpex lacteus DyP) (Irpex lacteus) (protein)
chain: SAGNDSLPFENIQGDILVGMKKDKEKFVFFHINNATTFKSFLKTYAPANITSVQTIIGPASGQPQAFVNLAFSHTGFGALGVADDLQDTAFTAGQFADAPSFGDDTSTWEEAFKGTNVDGVFLIGSDDVTTTNQYRDDLKAKLGDAWTVLLDLDSAARPGAEKGHEHFGYLDGISNPTIPGFGTPFPGQAVVDSGVIFAGRTNDPVTNRPSWALDGSFLVFRKLKQLVPEFHKWTLDNALQNQAGNLTVEEGALLLGSRMFGRWNSGAPIDLTPDVDDPTLGSDPQRNNDFNYIHPGEDLTTDETRCPFTAHVRKANPRDLEAQGLIPDLFHAIRAGTPYGPEVTDAESNSNTTSIDRGLAFVEYQSVISNGFRFQQLNWANNANFPFNKSEPLGLDPVIGQGTRQTFGLDPRNASDSLTIPQIIISNGGEYFFSPSITALVEHFGA
notes: mature form, signal peptide removed, 447 residues; about 50 kDa, non-glycosylated
B1 was tested, and the Km (purified protein [1]) was 1.5 ± 0.2 µM, the kcat (purified protein [1]) was 49.8 ± 1.3 s⁻¹ and the kcat/Km (purified protein [1]) was 3.3e+07 ± 4e+06 M⁻¹ s⁻¹. For the same protein, the Km (purified protein [2]) was 11.9 ± 2.1 µM and the kcat/Km (purified protein [2]) was 6.5e+06 ± 1e+06 M⁻¹ s⁻¹.
